{
  "source": "patent US20240109955A1",
  "data": [
    {"target": "SARS-CoV-2 spike protein, original Wuhan strain (WT) (SARS-CoV-2) (UniProt P0DTC2)", "experiment": "cell-based or functional assay", "units": {"IC50, pseudovirus neutralization": "nM", "IC80, pseudovirus neutralization": "nM"}, "values": [
      {"substance": "A19-46 mAb (antibody)", "IC50, pseudovirus neutralization": 0.263, "IC80, pseudovirus neutralization": 0.778},
      {"substance": "B1-182.1 (antibody)", "IC50, pseudovirus neutralization": 0.0264, "IC80, pseudovirus neutralization": 0.0692},
      {"substance": "A19-46.1 (antibody)", "IC50, pseudovirus neutralization": 0.263, "IC80, pseudovirus neutralization": 0.778},
      {"substance": "A19-61 mAb (antibody)", "IC50, pseudovirus neutralization": 0.172, "IC80, pseudovirus neutralization": 0.408},
      {"substance": "B1-182 mAb (antibody)", "IC50, pseudovirus neutralization": 0.0264, "IC80, pseudovirus neutralization": 0.0692}
    ]}
  ]
}
